# Laboratory results as given in patent publication US20150361183A1 (published 2015).
# Read-outs that look alike come from different tables or passages of the source.
# Key:
# C3dg = C3dg (UniProt P01024 955-1303); assay: SPR; thioester-coupled (clustered), steady state
# C3b [1] = target: T1, C3b (UniProt P01024 749-1663; P01024 23-667); assay: SPR; thioester-coupled C3b (clustered), steady state
# iC3b [2] = target: T2, iC3b (UniProt P01024 23-667; P01024 749-1303; P01024 1321-1663); assay: SPR; thioester-coupled (clustered), steady state
# T2 sequence (P01024 23-667, chain 1 of 3): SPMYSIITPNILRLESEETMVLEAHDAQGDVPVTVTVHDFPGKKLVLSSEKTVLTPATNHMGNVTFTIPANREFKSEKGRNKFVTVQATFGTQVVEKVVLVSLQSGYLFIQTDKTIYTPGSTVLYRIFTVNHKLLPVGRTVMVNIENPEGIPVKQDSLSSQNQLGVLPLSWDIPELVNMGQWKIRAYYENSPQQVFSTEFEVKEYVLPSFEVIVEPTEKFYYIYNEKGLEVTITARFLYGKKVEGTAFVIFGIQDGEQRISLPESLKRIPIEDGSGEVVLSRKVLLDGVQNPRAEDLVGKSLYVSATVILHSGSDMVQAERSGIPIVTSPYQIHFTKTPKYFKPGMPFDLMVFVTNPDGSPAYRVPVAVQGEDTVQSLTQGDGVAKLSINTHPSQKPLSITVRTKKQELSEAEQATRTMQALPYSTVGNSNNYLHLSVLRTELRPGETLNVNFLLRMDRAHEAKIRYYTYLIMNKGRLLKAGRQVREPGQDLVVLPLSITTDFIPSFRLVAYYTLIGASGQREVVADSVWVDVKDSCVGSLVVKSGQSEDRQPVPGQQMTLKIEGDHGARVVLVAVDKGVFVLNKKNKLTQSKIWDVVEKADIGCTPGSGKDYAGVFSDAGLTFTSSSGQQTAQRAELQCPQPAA
# T2 sequence (P01024 749-1303, chain 2 of 3): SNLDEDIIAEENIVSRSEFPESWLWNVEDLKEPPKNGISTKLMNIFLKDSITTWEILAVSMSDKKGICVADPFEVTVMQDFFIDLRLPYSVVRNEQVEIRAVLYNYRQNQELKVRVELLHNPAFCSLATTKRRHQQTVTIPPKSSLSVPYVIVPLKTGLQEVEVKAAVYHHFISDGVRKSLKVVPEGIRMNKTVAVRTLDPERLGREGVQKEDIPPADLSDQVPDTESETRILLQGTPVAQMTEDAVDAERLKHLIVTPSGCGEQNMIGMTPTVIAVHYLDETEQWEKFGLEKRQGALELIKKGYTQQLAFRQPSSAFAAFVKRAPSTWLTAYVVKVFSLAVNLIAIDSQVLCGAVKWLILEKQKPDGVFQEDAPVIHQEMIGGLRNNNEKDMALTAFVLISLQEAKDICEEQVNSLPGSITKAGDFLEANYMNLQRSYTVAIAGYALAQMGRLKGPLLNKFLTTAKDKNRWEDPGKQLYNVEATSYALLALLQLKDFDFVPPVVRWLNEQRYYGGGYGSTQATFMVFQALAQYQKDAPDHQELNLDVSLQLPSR
# T2 sequence (P01024 1321-1663, chain 3 of 3): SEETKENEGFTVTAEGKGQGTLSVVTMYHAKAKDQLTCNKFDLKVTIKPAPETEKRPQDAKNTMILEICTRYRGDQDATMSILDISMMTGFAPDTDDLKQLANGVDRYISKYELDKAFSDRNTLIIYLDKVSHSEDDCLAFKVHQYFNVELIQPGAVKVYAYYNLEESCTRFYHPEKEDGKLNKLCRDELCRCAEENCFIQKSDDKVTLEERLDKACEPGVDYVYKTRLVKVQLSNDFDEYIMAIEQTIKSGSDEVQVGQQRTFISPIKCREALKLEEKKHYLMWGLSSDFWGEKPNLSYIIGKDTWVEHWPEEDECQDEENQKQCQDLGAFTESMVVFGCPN
# C3b [3] = target: T1, C3b; assay: SPR; amine-coupled C3b (monomeric), steady state
# iC3b [4] = target: T2, iC3b; assay: SPR; thioester-coupled (clustered), steady state; remark: listed apart in the source
# C3b [5] = target: T1, C3b; assay: SPR; amine-coupled C3b (monomeric), steady state; remark: listed apart in the source
# T1 sequence (P01024 749-1663, chain 1 of 2): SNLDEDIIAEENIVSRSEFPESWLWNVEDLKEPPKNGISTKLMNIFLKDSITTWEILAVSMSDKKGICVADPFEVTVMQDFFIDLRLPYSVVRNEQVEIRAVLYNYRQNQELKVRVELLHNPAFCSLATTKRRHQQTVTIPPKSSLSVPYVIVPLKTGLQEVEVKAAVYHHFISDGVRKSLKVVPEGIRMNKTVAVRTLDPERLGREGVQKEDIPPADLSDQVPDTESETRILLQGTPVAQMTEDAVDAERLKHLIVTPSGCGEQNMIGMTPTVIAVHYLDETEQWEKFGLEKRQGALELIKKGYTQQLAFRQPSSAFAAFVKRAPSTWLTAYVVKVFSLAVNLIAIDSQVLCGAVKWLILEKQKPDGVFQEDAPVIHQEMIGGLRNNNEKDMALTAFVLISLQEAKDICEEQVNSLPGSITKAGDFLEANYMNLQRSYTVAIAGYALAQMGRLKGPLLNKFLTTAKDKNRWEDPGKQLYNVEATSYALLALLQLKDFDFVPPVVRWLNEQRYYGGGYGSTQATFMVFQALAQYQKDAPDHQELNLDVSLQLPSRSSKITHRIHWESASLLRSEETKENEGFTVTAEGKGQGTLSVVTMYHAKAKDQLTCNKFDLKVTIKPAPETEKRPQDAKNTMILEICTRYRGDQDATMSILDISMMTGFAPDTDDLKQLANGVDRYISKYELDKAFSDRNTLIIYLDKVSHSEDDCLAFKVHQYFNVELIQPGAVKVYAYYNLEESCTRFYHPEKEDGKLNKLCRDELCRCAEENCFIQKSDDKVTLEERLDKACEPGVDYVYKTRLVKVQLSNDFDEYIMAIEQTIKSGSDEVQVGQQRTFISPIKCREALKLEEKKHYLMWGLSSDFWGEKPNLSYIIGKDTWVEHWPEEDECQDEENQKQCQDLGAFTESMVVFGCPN
# T1 sequence (P01024 23-667, chain 2 of 2): as the sequence (P01024 23-667, chain 1 of 3) above
# Chain of C3dg (P01024 955-1303): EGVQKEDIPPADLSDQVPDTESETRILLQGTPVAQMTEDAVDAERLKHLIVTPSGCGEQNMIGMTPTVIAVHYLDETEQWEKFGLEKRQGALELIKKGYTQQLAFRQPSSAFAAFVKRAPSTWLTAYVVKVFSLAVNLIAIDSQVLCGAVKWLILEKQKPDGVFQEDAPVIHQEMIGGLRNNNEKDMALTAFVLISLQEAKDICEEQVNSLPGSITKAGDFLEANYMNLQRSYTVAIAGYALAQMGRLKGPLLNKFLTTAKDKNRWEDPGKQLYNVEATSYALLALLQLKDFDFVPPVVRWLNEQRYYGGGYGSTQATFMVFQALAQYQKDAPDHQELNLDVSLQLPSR
Kd (C3dg),Kd (C3b [1]),Kd (iC3b [2]),Kd (C3b [3]),Kd (iC3b [4]),Kd (C3b [5]),Binder
0.27 µM,0.31 µM,0.27 µM,3.8 µM,–,–,"CFHR5 (complement factor H-related protein 5), wild type (other) EGTLCDFPKIHHGFLYDEEDYNPFSQVPTGEVFYYSCEYNFVSPSKSFWTRITCTEEGWSPTPKCLRMCSFPFVKNGHSESSGLIHLEGDTVQIICNTGYSLQNNEKNISCVERGWSTPPICSFTKGECHVPILEANVDAQPKKESYKVGDVLKFSCRKNLIRVGSDSVQCYQFGWSPNFPTCKGQVRSCGPPPQLSNGEVKEIRKEEYGHNEVVEYDCNPNFIINGPKKIQCVDGEWTTLPTCVEQVKTCGYIPELEYGYVQPSVPPYQHGVSVEVNCRNEYAMIGNNMITCINGIWTELPMCVATHQLKRCKIAGVNIKTLLKLSGKEFNHNSRIRYRCSDIFRYRHSVCINGKWNPEVDCTEKREQFCPPPPQIPNAQNMTTTVNYQDGEKVAVLCKENYLLPEAKEIVCKDGRWQSLPRCVESTAYCGPPPSINNGDTTSFPLSVYPPGSTVTYRCQSFYKLQGSVTVTCRNKQWSEPPRCLDPCVVSEENMNKNNIQLKWRNDGKLYAKTGDAVEFQCKFPHKAMISSPPFRAICQEGKFEYPICE"
–,–,–,–,2.6 µM,1.7 µM,Complement factor H (CFH) (other) EDCNELPPRRNTEILTGSWSDQTYPEGTQAIYKCRPGYRSLGNVIMVCRKGEWVALNPLRKCQKRPCGHPGDTPFGTFTLTGGNVFEYGVKAVYTCNEGYQLLGEINYRECDTDGWTNDIPICEVVKCLPVTAPENGKIVSSAMEPDREYHFGQAVRFVCNSGYKIEGDEEMHCSDDGFWSKEKPKCVEISCKSPDVINGSPISQKIIYKENERFQYKCNMGYEYSERGDAVCTESGWRPLPSCEEKSCDNPYIPNGDYSPLRIKHRTGDEITYQCRNGFYPATRGNTAKCTSTGWIPAPRCTLKPCDYPDIKHGGLYHENMRRPYFPVAVGKYYSYYCDEHFETPSGSYWDHIHCTQDGWSPAVPCLRKCYFPYLENGYNQNYGRKFVQGKSIDVACHPGYALPKAQTTVTCMENGWSPTPRCIRVKTCSKSSIDIENGFISESQYTYALKEKAKYQCKLGYVTADGETSGSITCGKDGWSAQPTCIKSCDIPVFMNARTKNDFTWFKLNDTLDYECHDGYESNTGSTTGSIVCGYNGWSDLPICYERECELPKIDVHLVPDRKKDQYKVGEVLKFSCKPGFTIVGPNSVQCYHFGLSPDLPICKEQVQSCGPPPELLNGNVKEKTKEEYGHSEVVEYYCNPRFLMKGPNKIQCVDGEWTTLPVCIVEESTCGDIPELEHGWAQLSSPPYYYGDSVEFNCSESFTMIGHRSITCIHGVWTQLPQCVAIDKLKKCKSSNLIILEEHLKNKKEFDHNSNIRYRCRGKEGWIHTVCINGRWDPEVNCSMAQIQLCPPPPQIPNSHNMTTTLNYRDGEKVSVLCQENYLIQEGEEITCKDGRWQSIPLCVEKIPCSQPPQIEHGTINSSRSSQESYAHGTKLSYTCEGGFRISEENETTCYMGKWSSPPQCEGLPCKSPPEISHGVVAHMSDSYQYGEEVTYKCFEGFGIDGPAIAKCLGEKWSHPPSCIKTDCLSLPSFENAIPMGEKKDVYKAGEQVTYTCATYYKMDGASNVTCINSRWTGRPTCRDTSCVNPPTVQNAYIVSRQMSKYPSGERVRYQCRSPYEMFGDEEVMCLNGNWTEPPQCKDSTGKCGPPPPIDNGDITSFPLSVYAPASSVEYQCQNLYQLEGNKRITCRNGQWSEPPKCLHPCVISREIMENYNIALRWTAKQKLYSRTGESVEFVCKRGYRLSSRSHTLRTTCWDGKLEYPTCAKR
